The target in test [1] is phosphorylated tau peptide antigen in which threonine at position 181 in tau protein had been phosphorylated. Description: sandwich CLEIA, AT270 capture; S/N (40/0 pg/mL) against the mixture of ALP-labeled single antibodies.
For test [2] the target is unchanged. Description: sandwich CLEIA, AT270 capture; count at 40 pg/mL over count at 0 pg/mL.
Test [3] shares this target. Description: sandwich CLEIA (Lumipulse G), capture on AT270 magnetic particles, ALP-SA label; antigen 100 pg/mL.
Test [4] shares this target. Description: sandwich CLEIA (Lumipulse G), capture on AT270 magnetic particles, ALP-SA label; antigen 40 pg/mL.
For test [5] the target is unchanged. Description: sandwich CLEIA (Lumipulse G), capture on AT270 magnetic particles, ALP-SA label; antigen 400 pg/mL.
Test [6] shares this target. Description: sandwich CLEIA (Lumipulse G), capture on AT270 magnetic particles, ALP-SA label; antigen 200 pg/mL.
The target is the same in test [7]. Kind of test: sandwich CLEIA (Lumipulse G), capture on AT270 magnetic particles, ALP-SA label; antigen 0 pg/mL (blank).
The target in test [8] is tau protein in samples obtained by diluting a cerebrospinal fluid specimen with buffer (UniProt P10636). Kind of test: sandwich CLEIA, AT120 capture, SA-ALP detection; diluted cerebrospinal fluid sample LoQ 4, mean of n=10.
Test [9] concerns the target tau protein of the calibrator reagent for measuring total tau protein (LUMIPULSE G Total Tau Calibrators set, Fujirebio) (UniProt P10636). Kind of test: sandwich CLEIA, capture on AT120 magnetic particles, SA-ALP detection; calibrator 150 pg/mL.
Test [10] has the same target. Description: sandwich CLEIA, capture on AT120 magnetic particles, SA-ALP detection; calibrator 60 pg/mL.
Test [11] shares this target. Description: sandwich CLEIA, capture on AT120 magnetic particles, SA-ALP detection; calibrator 2250 pg/mL.
In test [12] the target is tau protein in samples obtained by diluting a cerebrospinal fluid specimen with buffer (UniProt P10636). Description: sandwich CLEIA, AT120 capture, SA-ALP detection; diluted cerebrospinal fluid sample LoQ 1, mean of n=10.
Test [13] shares this target. Kind of test: sandwich CLEIA, AT120 capture, SA-ALP detection; diluted cerebrospinal fluid sample LoQ 3, mean of n=10.
For test [14] the target is unchanged. Kind of test: sandwich CLEIA, AT120 capture, SA-ALP detection; diluted cerebrospinal fluid sample LoQ 2, mean of n=10.
For test [15], the target named is tau protein of the calibrator reagent for measuring total tau protein (LUMIPULSE G Total Tau Calibrators set, Fujirebio) (UniProt P10636). Kind of test: sandwich CLEIA, capture on AT120 magnetic particles, SA-ALP detection; calibrator 420 pg/mL.
In test [16] the target is tau protein in samples obtained by diluting a cerebrospinal fluid specimen with buffer (UniProt P10636). Kind of test: sandwich CLEIA, AT120 capture, SA-ALP detection; diluted cerebrospinal fluid sample LoQ 5, mean of n=10.
Test [17] has as its target tau protein of the calibrator reagent for measuring total tau protein (LUMIPULSE G Total Tau Calibrators set, Fujirebio) (UniProt P10636). Kind of test: sandwich CLEIA, capture on AT120 magnetic particles, SA-ALP detection; calibrator 900 pg/mL.
The target is the same in test [18]. Description: sandwich CLEIA, AT120 capture, SA-ALP detection; calculated count at 600 pg/mL over count at 0 pg/mL.
Test [19] addresses tau protein in samples obtained by diluting a cerebrospinal fluid specimen with buffer (UniProt P10636). Description: sandwich CLEIA, AT120 capture, SA-ALP detection; diluted cerebrospinal fluid sample LoB, mean of n=10.
For test [20], the target named is tau protein of the calibrator reagent for measuring total tau protein (LUMIPULSE G Total Tau Calibrators set, Fujirebio) (UniProt P10636). Kind of test: sandwich CLEIA, capture on AT120 magnetic particles, SA-ALP detection; calibrator 0 pg/mL (blank).
Test [21] deals with tau protein in samples obtained by diluting a cerebrospinal fluid specimen with buffer (UniProt P10636). Kind of test: one-step sandwich CLEIA, AT120 capture; diluted cerebrospinal fluid sample LoQ 5, mean of n=10.
In test [22] the target is phosphorylated tau peptide antigen in which threonine at position 181 in tau protein had been phosphorylated. Kind of test: sandwich CLEIA (Lumipulse G), capture on AT270 magnetic particles; antigen 4.5 pM.
For test [23], the target named is tau protein in samples obtained by diluting a cerebrospinal fluid specimen with buffer (UniProt P10636). Description: one-step sandwich CLEIA, AT120 capture; diluted cerebrospinal fluid sample LoB, mean of n=10.
The target in test [24] is tau protein of the calibrator reagent for measuring total tau protein (LUMIPULSE G Total Tau Calibrators set, Fujirebio) (UniProt P10636). Kind of test: one-step sandwich CLEIA (Lumipulse G), capture on AT120 magnetic particles; calibrator 2639 pg/mL.
Test [25] has the same target. Description: one-step sandwich CLEIA (Lumipulse G), capture on AT120 magnetic particles; calibrator 667 pg/mL.
Test [26] addresses phosphorylated tau peptide antigen in which threonine at position 181 in tau protein had been phosphorylated. Description: sandwich CLEIA, AT270 capture; S/N (4.5 pM/0 pM) against the ALP-labeled single antibody mixtures.
Test [27] addresses tau protein of the calibrator reagent for measuring total tau protein (LUMIPULSE G Total Tau Calibrators set, Fujirebio) (UniProt P10636). Description: one-step sandwich CLEIA (Lumipulse G), capture on AT120 magnetic particles; calibrator 1037 pg/mL.
Test [28] deals with phosphorylated tau peptide antigen in which threonine at position 181 in tau protein had been phosphorylated. Description: sandwich CLEIA (Lumipulse G), capture on AT270 magnetic particles; antigen 72 pM.
The target is the same in test [29]. Kind of test: sandwich CLEIA (Lumipulse G), capture on AT270 magnetic particles; antigen 9 pM.
The target of test [30] is tau protein in samples obtained by diluting a cerebrospinal fluid specimen with buffer (UniProt P10636). Kind of test: one-step sandwich CLEIA, AT120 capture; diluted cerebrospinal fluid sample LoQ 2, mean of n=10.
Test [31] has as its target phosphorylated tau peptide antigen in which threonine at position 181 in tau protein had been phosphorylated. Description: sandwich CLEIA (Lumipulse G), capture on AT270 magnetic particles; antigen 150 pM.
Test [32] has as its target tau protein in samples obtained by diluting a cerebrospinal fluid specimen with buffer (UniProt P10636). Kind of test: one-step sandwich CLEIA, AT120 capture; diluted cerebrospinal fluid sample LoQ 4, mean of n=10.
For test [33], the target named is tau protein of the calibrator reagent for measuring total tau protein (LUMIPULSE G Total Tau Calibrators set, Fujirebio) (UniProt P10636). Kind of test: one-step sandwich CLEIA (Lumipulse G), capture on AT120 magnetic particles; calibrator 101 pg/mL.
Test [34] has the same target. Description: one-step sandwich CLEIA (Lumipulse G), capture on AT120 magnetic particles; calibrator 0 pg/mL (blank).
Test [35] deals with phosphorylated tau peptide antigen in which threonine at position 181 in tau protein had been phosphorylated. Description: sandwich CLEIA (Lumipulse G), capture on AT270 magnetic particles; antigen 18 pM.
For test [36] the target is unchanged. Kind of test: sandwich CLEIA (Lumipulse G), capture on AT270 magnetic particles; antigen 36 pM.
The target in test [37] is tau protein of the calibrator reagent for measuring total tau protein (LUMIPULSE G Total Tau Calibrators set, Fujirebio) (UniProt P10636). Kind of test: one-step sandwich CLEIA (Lumipulse G), capture on AT120 magnetic particles; calibrator 213 pg/mL.
Test [38] shares this target. Description: sandwich CLEIA, AT120 capture; S/N (600/0 pg/mL) against BT2-bio + HT7-bio with SA-ALP.
For test [39] the target is unchanged. Description: sandwich CLEIA, AT120 capture; calculated count at 600 pg/mL over count at 0 pg/mL.
The target of test [40] is tau protein in samples obtained by diluting a cerebrospinal fluid specimen with buffer (UniProt P10636). Description: one-step sandwich CLEIA, AT120 capture; diluted cerebrospinal fluid sample LoQ 1, mean of n=10.
The target of test [41] is phosphorylated tau peptide antigen in which threonine at position 181 in tau protein had been phosphorylated. Description: sandwich CLEIA (Lumipulse G), capture on AT270 magnetic particles; antigen 0 pM (blank).
For test [42], the target named is tau protein in samples obtained by diluting a cerebrospinal fluid specimen with buffer (UniProt P10636). Description: one-step sandwich CLEIA, AT120 capture; diluted cerebrospinal fluid sample LoQ 3, mean of n=10.
Test [43] concerns the target phosphorylated tau peptide antigen in which threonine at position 181 in tau protein had been phosphorylated. Kind of test: sandwich CLEIA, AT270 capture; count at 4.5 pM over count at 0 pM.

As for “BSA linker hybrid conjugate 1 labeled with ALP (BT2 Fab′ and HT7 Fab′ on maleimidated BSA, biotinylated, with streptavidin-conjugated alkaline phosphatase) (from UniProt P02769 25-607)”, in test [1], the S/N ratio against the mixed conjugate reaction solution came to 9 fold. Further, the S/N (40/0) in test [2] is 10. Also, the Count value in test [3] stood at 7390 count; in [4], 3110 count; in test [5] it was 28700 count; in test [6], 14400 count; in [7], 312 count.

As to “BSA linker hybrid conjugate 2 labeled with ALP (BT2 Fab′ and HT7 Fab′ on biotinylated and maleimidated thiolated BSA, with streptavidin-conjugated alkaline phosphatase) (from UniProt P02769 25-607)”, the S/N ratio against the mixed conjugate reaction solution in [1] is 13 fold. For the same substance, the S/N (40/0) in test [2] was determined as 14.3. For the same substance, the Count value in [3] came out at 10100 count; in test [4] it was 3970 count; in [5], 37300 count; in test [6], 19300 count; in test [7], 278 count.

In the case of “antibody mixture of biotinylated monoclonal antibody BT2 and biotinylated monoclonal antibody HT7, detected with streptavidin-labeled ALP”, the Count value in [8] was 694 count; in [9], 817 count; in test [10] it was 514 count; in test [11], 38100 count; in test [12], 455 count; in [13], 641 count. Further, the Count value in test [14] was 585 count; in test [15], 2670 count; in test [16], 858 count; in test [17], 7070 count; in [19], 408 count; in test [20], 409 count. Moreover, the S/N (600/0) in test [18] is 10.

With “hybrid conjugate labeled with alkaline phosphatase (BT2 Fab′ fragment and HT7 Fab′ fragment coupled to maleimidated ALP)”, the Count value came out at 2380 count in test [21]; 42600 count in test [22]; 728 count in test [23]; 211000 count in test [24]; 50400 count in test [25]; 83600 count in test [27]. Besides, the Count value in test [28] was found to be 576000 count; in [29], 73800 count; in test [30] it was 1160 count; in [31] it was 1.35e+06 count; in test [32], 1970 count; in test [33] it was 9280 count. Further, the Count value in test [34] was 744 count; in test [35], 153000 count; in [36] it was 297000 count; in test [37], 17600 count; in test [40], 982 count; in test [41] it was 595 count. This substance came in with a Count value in test [42] of 1600 count. Further, the S/N ratio against the ALP-labeled Fab′ fragment mixture in test [26] was determined as 6 fold. Also, the S/N ratio against the mixture of the labeled antibodies in test [38] was found to be 6 fold. Also, the S/N (600/0) in test [39] is 60.6. The S/N (4.5/0) in test [43] is 71.7.

Values taken from patent publication US20220018856A1.
